Experimental data: the nanobody polyreactivity screen of Harvey et al. (2022)

Assay: yeast display, Sf9 membrane polyspecificity reagent, FACS + sequencing; frameworks hold sequencing errors
Procedure, shortened: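 Genes from sorted yeast were amplified by colony PCR, read by MiSeq 2 × 250 sequencing and filtered on CDR length. These cells carried a synthetic nanobody library in Saccharomyces cerevisiae BJ5465 and were sorted by FACS into low and high (top ~1%) gates on anti-HA and streptavidin fluorescence. Polyreactivity is labelled according to the gate of origin.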

Sequence	polyreactivity (PSR sort gate)
QDQLVESGGGLVQAGGSLRLSCSASGSTFIRNSKGWYRQATGKERELVAAITTDGSTDYADSVKGRFTISRDNAKNTVYLQMNSLKPEDTAVYYCNAEYRLDALSYDYWGQGTQVTVSS	low polyreactivity
QVQLVESGGGLVQAGGSHRLSCDASGYIFRRYAMGWYRQAPGKERELVAAISWRGGSTYYADSVKGRFTISRDNAKNTVYLQMNSLKPEDSAVYYCAKVVPGAGHLDEYWGQGTQVTVSS	high polyreactivity
QVQLVESGGGLVQAGGSLRLSCAASGRTFFIYAMGWYRQAPGKERELVAAISNGGSTNYADSVKGRFTISRDNAKNPVYLQLNSLKPEDTAVYYCAAQYIGNLRGVFHYEFDWGQGTQVSVSS	high polyreactivity
QVQLHESGVGLVQAGGSLRLSCASSGTISYAGPMGWYRQAPGKEREFVAGIGVGSNTNYADSVKGRYTIIRDNAKNTVYLQMNSLKPEDTAVYYCAVGGYAPLGRPYWGQGTQVTVSS	low polyreactivity
QVQLVESGGGLVQAGGSLRLSCAASGFTFSRNTMGWYRQAPGKARELVARISASGGSTYYADSVKGRFTISRDNAKNTVYLQMNSLKPEDTAVYYCAAVYRRYGGSRYDYWGQGTQVTVSS	high polyreactivity
QVQLVESGGGLVQAGGSLRLSCAGSGITFYWYAMGWDRQAPGKERELVAGISQSGSRTYYADSVKGRFTISRDNAKNTVYLQMNSLKPEDTAVYYCAARVRWSPTRTFEYWGQGTQVTVSS	high polyreactivity
QDQLVESGGGLVQAGGSLRLSCAASGRTFSTYAMGWYRQAHGKERELVARITSSGGSTYFADSVKGRFTISRDNAKNTVYLQMNSLKPEDTAVYYCAADAWSYWGYPYWWGYDYWGQGTQVTVSS	high polyreactivity
QVQLVESGGGLVQAGGSLRLSCAASGFIFGDYAMGWYRQAPGTERELVAAIFSGGSTYYADSVKGRFTISRDNAKNTVYLQMNSLKPEDTAVYYCAARFARYDWSMYYWGQGTQVTVSS	low polyreactivity
QVQLVESGGGLVQAGGSHRLSCAASGSIFYDNAMGWYRQAPGKERELVAVITVSGDSTYYADSVKGRFTISRDNAKNTVYLQMNSLKPEDTAVYYCNTDAISGSHFWRYITFGYLDDYWGQGTQVTVSS	low polyreactivity
QVQLVESGGGLVQAGGSLRLSCAASGSIFVGYAMGWYRQAPGKERELVASITTRGGSTHYADSVKGRFTISRDNAKNTVYLQMNSLKPEDTAVYYCAADSLSNGVLQYLPGYDYWGQGTQVTVSS	low polyreactivity
QVQIVESGGGLVQAGVSLRISCAASGSTFADYTMGWYRQAPGKERELVAAISQSGARTYYADSVKGRFTISRDNAKNTVYLQMNSLKPEDTAVYYCAATKAASGPYFRYYYWGQGTQVTVSS	high polyreactivity
QVQLVESGGGLVQAGGSLRLSCAASGRIFKWNAMGWYRQAPGKERELVAAISTSGGNTYYADSVKGRFTISRDYAKNTVYLQMNSLKPEDTAVYYCAATYPNSLRQVGYWGQGTQVTVSS	high polyreactivity
QVQLVESGGGLVQAGGSLRLSCASSGSTFYNNALGWYRQAPGKERELVAAISNVSTYYADSVKGRFTISRDNAKNTVYLQLISLKPEDTAVYYCAARGLLWYYSWRYYFWGQGTQVTVSS	low polyreactivity
QVQLVETGGGLVQAGGSLRLSCAASGSIFVLYAMVWSRQAPGKERELVAAISKRTGSSYYADSVKGRFTISRDHAKHTVYLQTNSLKPEDTAVYYCAARGRQYRYYDLDYWGQGTQVTLSS	low polyreactivity
QVQLVESGGGLVQAGGSLRLSCAASGRTIAAYAMGWYRQAPGKERELVAAISRSGGSTYYADSVKGRFTISRDNAKNTVYLQMNSLKPEDTAVYYCAAYYIVSSLFGYWGQGTQVTVSS	high polyreactivity
QVQLVESGGGLVQAGGSLRLICAASGLTFNYYVMGWYRQAPGKERELVAAISYSGGRTYYADSVKGRFTISRDNANNTVYLQMNSLKPEDTAVYFCNVTGHRNSFIYYGGYEYWGQGTQVTVSS	high polyreactivity
QVQLVESGGGLVQAGGSLRLSCAASGSIFYYNGMGWYRHAPGKERELVASISRGGGTNYADSVKGRFTISRDNAKNTVYLQMNSLKPEDTAVYYCNARYPRSSPFGYWGLGTQVTVSS	high polyreactivity
QVQLVESGGGLVQAGGSLRLSCAASGSIFMGNAMGWYRQAPGKERELVATITSSGSTSYADSVKGRFTISRDNAKNTVYVQMNSLKPEDTAVYYCNTDLFQYGRTSTIYYEYDYWGQGTQVTVSS	high polyreactivity
QLQLVDSGGGLVQAGGSLRLSCAASGRIFSANAMGWYRQAPGKERELVAAIDGSDGITYYADSVKGRFTISRDNAKNTVYLQMNSLKPEDTAVYYCAAYLPYTTYRYRYDYWGQGNQVTVSS	high polyreactivity
QVQLVETGGGLVQAGGSLRLSCAASGFTFAKYAMGRYRQAPGKERELVAAISSIGGSTYYADSVKGRFTISRDNAKNSVYLQMNSLKPEDSAVYFCAAELYCGYYYWGQGTQVTVYS	high polyreactivity

Sequence	polyreactivity (PSR sort gate)
QVQLVESGGALVQAGGSLRLSCAASGFIICYYAMGSYRQAPGKDRELVAAITSGTSTSYADSVKGRFTISRDNAKNTVYLQMNSLKQEDTAVYYCGADVVRSNFYGTFLYDYDYWGQGTQVTVSS	low polyreactivity
QVQLVESGGGLVQAGGSLRLSCAASGRTFYIYVMGWDRQAPGKERELVAGITVRGGITNYADSVKGGFTSSRDNAKNTVYLQMNSLKPEDTAVYYCAVDDLGSEYDYWGQGTQVTVSS	low polyreactivity
QVQLVESGGGLVQAGGSLRLSCAASGRIFGIYAMGWYRHAPGKERELVATITWSGGSTYYADSVKGRFTISRDNAKNTVYLQMNSLKPEDTAVYYCAAYYRQFFGWYDYWGQGTQVTVSS	high polyreactivity
QVQLVESGGGLVQAGGSLRLSFAASGSIFKGNVMGWYRQAPGKERELVAGISRRGTSTYYADSVKGRFTISRDNAKNSVYLQMNSLKPEDSAVYYCAKRYYTYGYDYWGQGTQVTVSS	high polyreactivity
QVQHVESRGGLVQAGGSLRLSCAASGSTFGVYAMGRYRQAPGKERELDASISSGGRTKYADSVKGRFTISRDNAKNTVYLQMNSLKPEDTAVYFCAARIRYLGVRDNDNYYCGQGTQVTVSS	low polyreactivity
QVQLVESGGGLVQAGGSLRLSCAASGRTFVRNAMGWYRQAPGKERELVAGIRRGGTTNYADSVKGRFTISRDNAKNTVYLQMNSLKPEDTAVYYCNALYRYGWLYAPKYNSWGQGTQVTVSS	high polyreactivity
QVQHVESGGGLVQAGGSLRLSCAASGIIFYDYTMGWYRQAPGKERELVAVITNGDTTYYADSVKGRFTISRDNAKNTVYLQMNSLKPEDTAVYYCAADKRPPYILDYWGQGTQVTVSS	high polyreactivity
QVQLVESGGGLVQAGGSLRLSCAASGRTFGRNAMGWYRQAPGKEMELVAAISWTGGNTYYADSVKGRFTISRDNAKNTVYLQMNSLKPEDTAVYYCAARGRYVTPQPSYDYWGQGTQVTVSS	high polyreactivity
QVQLVESGGGLVQAGGSLRLTCAASGRTFWRYAMGWYRQAPGKERELVAAITSGGGSTYYADSVKGRFTISRDNAKNTVYLQMTSLKPEDTAVYYCNRAGRGRSFKGDYWGQGTQVTVSS	high polyreactivity
QVQLVESGGGLVQAGGSLRLSCAASGRIFRWNAMGWYRQAPGKERELVAVISSGGSTNYADSVKGRFTISRDNAKNTVYLQMNSLKPEDTAVYYCAKGLIRYSHLDYWGQGTQVTVSS	low polyreactivity
QVQLVESGGGLVQAGGSLRLSCAASGSTFGRNAMGWYRQAPGKDRELVAAINSGGGTYYADSVKGRFTISRDNAKNTVYLQMNSLKPEDTAVYDCAAARGYGNYVYWGQGTQVTVSS	low polyreactivity
QVQLVESGGGLVQAGGSLRLSCAASGRTFPVNGMGWYRQAPGKERELVAAITGGGSTNYADSVKGRFTISRDNAKNTVYLQMNSLKPEDTAVYYCAAGSYSRYLYSLYFDFDYWGQGTQVTVSS	low polyreactivity
QVQLVESGGGLVQAGGSLRLSCAASGFTFGANVMGWYRQAPGKERELVAAINTRGSRTYYADSVKGRFTISRDIAKNTVYLQMNSLKPEDTAVYYCAAALRKEYDYWGQGTQVTVSS	high polyreactivity
QVQLVESGGGLVQAGGSLRLSCAASGFTFWYYAMGWYRQAPGKERELVAAITSGGTTYYADSVKGRFTISRDNAKNTVYLQMNSLKPEDTAVYYCAALLSIYRSQYDYWGQGTQVTVSS	high polyreactivity
QVQLVESGGGLVQAGGSLRISCAASGRILARNAMGWYRQAPGKERDLVATITWTDGSTYYADSVKGRFTISRDNAKNTVYLQMNSLKPEDTAVYYCDADLPGYWLPTVPKNYGDYWGQGTQVTVSS	low polyreactivity
QVQLVESGGGLVQAGGSLRLICAASGSIFDQNDMGWYRQAPGKERELVAAISSGSSTNYADSVKGRFTISRDNAKNTVYLQMNSLKAEDTAGYYCAVTSPYSQGYSFWGADSREYWGQGTQVTVSS	low polyreactivity
QVQLVESGGGLVQAGGSLRLSCAASGRIFGYYAMGWYRQAPGKERELVAAISDGGSTDYADSVKGRFTISRDNAKNTVYLQMNSLKPEDTAVYYCNADRLYLYNVEYDYWGQGTQVTVSS	low polyreactivity
QVQVVESGGGLVQAGGSLRLSCAASGFTIFSYAMGWYRQAPGKERELVAAISRRGGSTYYADSVKGRFTISRDNAKNTVYLQMNSLKPEDTAVYYCNAKWTSHGTYAEDYWGQGTQVTVSS	high polyreactivity
QVQLVESGGGLVQAGGSLRLSCAASGRPFRLNGMGWYRQAPGKERELVAAITWSGGRTYYADSVKGRFTISRDNAKTTVYLQMNSLKPEDTAVYDCAADYRYKSHWWYRRFDYWGQGTQVTVSS	high polyreactivity
QVQLVESVGGLVQAGGSLRLSCAASGSITVANAMGWYSQAPGKESELVAAITDSGDDTYYADSVKGRFTNSRDNAKNTVYLLMNSLKAEDTAVYYCAVEAWSVPPYDYWGQGTQVTVSS	low polyreactivity
